The test addresses IraP with a C-terminal His10-tag, purified (E. coli) (UniProt P0AAN9).

IraP with a C-terminal His10-tag, purified (E. coli), sequence (P0AAN9 whole entry): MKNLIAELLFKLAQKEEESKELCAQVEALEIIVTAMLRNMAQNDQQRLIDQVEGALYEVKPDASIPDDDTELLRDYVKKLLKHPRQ

Take “RssBN, N-terminal domain of RssB (residues 1-129), untagged, purified (from UniProt P0AEV1 1-129) (domain or fragment)”: the rate of σ^S turnover in the presence of IraP and AcP with a 5-fold excess of RssBN (Figure S4) turned out to be 2 fold.

(Values after paper PMC4428439.)
